Data on four substances can be found in patent US20260232826A1, “ANTIBODY-DRUG CONJUGATES AND THEIR USES” (Mablink Bioscience, priority 2022, published 2026).

“Also recorded” adds a separate entry of the source.

Assay [1] concerns the target T1, extracellular human FRα expressed on cancerous cell lines (Homo sapiens, UniProt P15328).
T1 construct: endogenous in cells; host or cells: human cancer cell lines (ATCC/DSMZ/ECACC); BT-474 as FRα-negative control
The assay is described as follows: Cell-binding affinity by flow cytometry. The note with it: APC-labelled antibody or ADC, flow cytometry (FIG. 6). As for the experimental part:
Antibody or ADC binding to extracellular human FRα expressed on cancerous cell lines is assessed by flow cytometry. Tested antibody or ADC is conjugated to APC fluorophore using LYNX Rapid APC Antibody Conjugation Kit according to the manufacturer's protocol (Bio-Rad, Cat #LNK032APC). Into 500000 cells (suspended in 100 μL of PBS in flow cytometry plastic tubes) is added 5 μL of a 10 μg/mL solution of tested APC-labelled antibody or ADC. Cells are incubated 20 min in the dark, are washed with PBS 3 times by centrifugation and are re-suspended in 200 μL of PBS for analysis. Flow cytometry is performed using a BD Fortessa flow cytometer controlled by BD FACSDiva software (BD Biosciences) and data are analyzed using FlowJo software (BD Bioscience).
Antibody or ADC binding to extracellular human FRα expressed on cancerous cell lines was assessed by flow cytometry. Tested antibody or ADC was conjugated to APC fluorophore using LYNX Rapid APC Antibody Conjugation Kit according to the manufacturer's protocol (Bio-Rad, Cat #LNK032APC). Into 500000 cells (suspended in 100 μL of PBS in flow cytometry plastic tubes) was added 5 μL of a 10 μg/mL solution of tested APC-labelled antibody or ADC. Cells were incubated 20 min in the dark, were washed with PBS 3 times by centrifugation and were re-suspended in 200 μL of PBS for analysis. Flow cytometry was performed using a BD Fortessa flow cytometer controlled by BD FACSDiva software (BD Biosciences) and data were analyzed using FlowJo software (BD Bioscience).

Assay [2] concerns the target T2, recombinant human FRα (Homo sapiens, UniProt P15328).
T2 construct: purchased Sino Biological 11241-H08H
Put plainly: Human FRα-binding affinity by SPR (Biacore). Particulars: Biacore T200, 25° C. (FIG. 5). The procedure:
Surface plasmon resonance (SPR) experiments are performed on a Biacore T200 apparatus, at 25° C. Tested antibody or ADC are captured at low density (300-500 RU) on a CM5 series S sensorchip, beforehand functionalized with a Human Antibody Capture kit (Cytiva cat #BR100839). A functionalized surface/flow cell treated similarly but omitting ligand is used as reference. To measure kinetics rates and affinities, recombinant human FRα (Sino Biological cat #11241-H08H) analyte sample is injected in duplicates at 5 concentrations (0.5, 1, 2, 4, 8 nM) in series using single cycle kinetics strategy and at constant […] flow rate of running buffer (HBS-EP+, Cytiva cat #BR100669) with contact pulses of 300 sec. The dissociation phase is measured by injection of running buffer for 900 sec. Between duplicates, surfaces/flow cells are regenerated with 3M MgCl2 to remove both analyte and ligand, and fresh ligand capture are done using identical conditions. The data analysis is performed using the Biacore Evaluation software after subtraction of reference surface and analyte zero-concentration signals. […]
Surface plasmon resonance (SPR) experiments were performed on a Biacore T200 apparatus, at 25° C. […] The dissociation phase was measured by injection of running buffer for 900 sec. […]
Background: Surface plasmon resonance follows binding to a sensor surface in real time, without labels.

The target of assay [3] is T2, recombinant human FRα. Put plainly: Recombinant FRα-binding affinity by ELISA (human). The note with it: FIG. 4A/4B. The procedure:
Sandwich ELISA assays are performed using 96-well high-binding ELISA plates (Corning Inc., New York, NY, USA, Cat #3590). Plates are coated using 100 µL/well of recombinant human FRα protein (Sino Biological cat #11241-H08H) in PBS (pH 7.4) at 2 μg/mL and incubated overnight at 4° C. After 2 washes with PBS-T (PBS+0.05% Tween-20), the plates are blocked with 200 μL/well of incubation buffer (PBS-T+0.1% BSA) for 1 h at room temperature. The plates are washed 4 times with PBS-T, and 100 μL of a threefold dilution series of tested compound (antibody or antibody-drug conjugate) is added. Then, the plates are incubated for 2 h at room temperature in the dark. After 5 washes with PBS-T, plates are incubated 1 h at room temperature with 100 μL/well of a goat anti-human IgG (H+L) HRP conjugated antibody (Jackson Immunoresearch cat #109-035-088), previously diluted 1:250000 in incubation buffer. After 5 washes with PBS-T, TMB substrate solution (Thermo-Fisher cat #N301) is added. Peroxidase activity is stopped with 0.18M H2SO4 and absorbance is read at 450 nm (reference wavelength 650 nm) using a Thermo Scientific MultiSkan EX microplate reader. Sigmoidal fittings were performed using GraphPad Prism 9 software.
Sandwich ELISA assays were performed using 96-well high-binding ELISA plates (Corning Inc., New York, NY, USA, Cat #3590). Plates were coated using 100 μL/well of recombinant human FRα protein (Sino Biological cat #11241-H08H); recombinant cynomolgus FRα protein (Sino Biological cat #90950-C08H); recombinant rat FRα protein (Sino Biological cat #81073-R08H) or recombinant mouse FRα protein (Sino Biological cat #50573-M08H) in PBS (pH 7.4) at 2 μg/mL and incubated overnight at 4° C. After 2 washes with PBS-T (PBS+0.05% Tween-20), the plates were blocked with 200 μL/well of incubation buffer (PBS-T+0.1% BSA) for 1 h at room temperature. […] Peroxidase activity was stopped with 0.18M H2SO4 and absorbance was read at 450 nm (reference wavelength 650 nm) using a Thermo Scientific MultiSkan EX microplate reader. […]
(An ELISA detects its analyte on a solid surface through an enzyme-linked reagent.)

The test system of assay [4] is FRα positive cancerous cell lines. Put plainly: In vitro cytotoxicity assay (MTT) on FRα+ cancerous cell lines. The class given is cell-based, Human. Particulars: 144 hours incubation, several FRα positive cell lines (FIG. 3). As for the experimental part: In vitro cytotoxicity of compound exatecan mesylate was assessed on several FRα positive cancerous cell lines. Cells were plated in 96-well plates at an appropriate density depending on the cell line (between 1000 and 10000 cells/well in 100 μL of appropriate culture media) and incubated at 37° C. for 24 hours. Serial dilutions of the tested compound previously dissolved in culture media (50 μL) were added, and incubation was carried at 37° C. out for 144 hours. MTT (5 mg/mL, 20 μL, Sigma-Aldrich) was added into the wells, and incubation was continued for 1 to 2 hours at 37° C. Culture media was then carefully removed, and well content was homogeneously dissolved with acidified isopropanol. Absorbance values were measured on a Multiskan™ Sky microplate reader (Thermo Scientific) using a wavelength of 570 nm (with a reference wavelength of 690 nm). The IC50 concentration values compared to untreated control cells were determined using inhibition dose response curve fitting (GraphPad Prism 9).

T2 sequence (P15328 25-234): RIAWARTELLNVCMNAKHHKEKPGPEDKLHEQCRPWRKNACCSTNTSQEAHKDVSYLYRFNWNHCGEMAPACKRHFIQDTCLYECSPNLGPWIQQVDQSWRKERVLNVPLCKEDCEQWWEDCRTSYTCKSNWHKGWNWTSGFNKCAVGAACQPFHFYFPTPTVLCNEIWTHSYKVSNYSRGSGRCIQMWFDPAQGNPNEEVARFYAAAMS
T1 sequence (P15328 25-234): as above

Turning to “farletuzumab-LALA: Fc-silent farletuzumab with L234A and L235A mutations, heavy chain SEQ ID NO:9, light chain SEQ ID NO:10”, the “human FRα cell binding” value in assay [1] was “Comparable human FRα cell binding”. The “recombinant human FRα binding (SPR), in words” value in the assay with recombinant human FRα [2] is recorded as “No loss of binding”. The “recombinant human FRα binding (ELISA), in words” value with recombinant human FRα [3] is “No loss of binding”.

As to Exatecan Mesylate, the “IC50's in vitro potencies” value in assay [4] is recorded as “sub-nM to low-nM”.

As for “farletuzumab: anti-FRα IgG1 antibody, heavy chain SEQ ID NO:11, light chain SEQ ID NO:10”, in assay [1], the “human FRα cell binding” value is recorded as “Comparable human FRα cell binding; also recorded: binding affinity appeared identical”. The “recombinant human FRα binding (SPR), in words” value with recombinant human FRα [2] is recorded as “No loss of binding”. The “recombinant human FRα binding (ELISA), in words” value with recombinant human FRα [3] is listed as “No loss of binding”.

For “mirvetuximab: humanized anti-FRα antibody, heavy chain SEQ ID NO:16, light chain SEQ ID NO:17”, the “human FRα cell binding” value in assay [1] is recorded as “binding affinity appeared identical”. Moreover, in the assay with recombinant human FRα [3], the “recombinant human FRα binding (ELISA), in words” value was “No significant loss of binding”.
